Experimental data from paper PMC6179282.

What was measured:
[1] = molecular target: Camelus dromedarius mu-class glutathione S-transferase (CdGSTM1) (Camelus dromedarius); experiment: cross-linking; 0.25% glutaraldehyde, room temperature, 15 min, CdGSTM1 0.5 mg/mL at pH 4.0, before and after SEC; SDS-PAGE
[2] = molecular target: Camelus dromedarius mu-class glutathione S-transferase (CdGSTM1) (Camelus dromedarius); experiment: SEC; Superdex 200 Increase, 0.25 mg CdGSTM1 equilibrated at pH 4.0, buffer with 150 mM NaCl at pH 4.0
[3] = molecular target: Camelus dromedarius mu-class glutathione S-transferase (CdGSTM1) (Camelus dromedarius); experiment: cross-linking; 0.25% glutaraldehyde, room temperature, 15 min, CdGSTM1 0.5 mg/mL at pH 7.0, before and after SEC; SDS-PAGE
[4] = molecular target: Camelus dromedarius mu-class glutathione S-transferase (CdGSTM1) (Camelus dromedarius); experiment: SEC; analytical Superdex 200 Increase 10/300 GL, calibrated; CdGSTM1 2.5 mg/mL (also 0.25 mg loaded) in 50 mM phosphate buffer, 150 mM NaCl, pH 7.0

- stoichiometry N [1]: 2
- stoichiometry N [2]: 2
- stoichiometry N [3]: 2
- stoichiometry N [4]: 2
Substance: Camelus dromedarius mu-class glutathione S-transferase (CdGSTM1) (enzyme)
